Reference: patent publication US20030124568A1 (published 2003)
Ends that are not written are not given here.

How the values were obtained:
Test in all cases: yeast two-hybrid cotransformation in Y190
[1] = biological target: T1, GIRK1-NC-bait (GAL4-DNA binding domain fused to the N terminus of the GIRK1 subunit, a linker sequence GSSGSS … (rat, UniProt P04386 1-147; P63251 1-80; P63251 180-501, limits assumed)
T1 construct: Yeast two-hybrid bait in pDBLeu, expressed in yeast strain Y190
Excerpt: (§1) The DNA (accession no.: U09243, EMBL datebase) coding for the carboxyl terminus or the amino terminus of the GIRK1 subunit was amplified by PCR starting from the plasmid “GIRK1NC-bait” using the primers GGIRK1-4s (5′-[…]-3′) and GGIRK1-as (5′-[…]-3′) or GIRK1-NC-s (5′ -[…]-3′) and GIRK1-N-as (5′-[…]-3′) and cloned into the vector pDBLeu. Each of the plasmids was cotransformed with the pPC86 plasmid. GIRK1NCprey2 (SEQ ID NO: 1 nucleotides 1011-1349) or with the plasmid GIRK1NCprey3 (SEQ ID NO: 1, nucleotides 500-1193) into the yeast strain Y190. […] It is evident that the interaction with Mogli takes place only in the presence of both intracellular portions of GIRK1.

[2] = biological target: T2, carboxyl terminus of the GIRK1 subunit cloned into the vector pDBLeu (rat, UniProt P04386 1-147; P63251 180-501, limits assumed)
T2 construct: Yeast two-hybrid bait with the GIRK1 C terminus alone; also called C terminus of GIRK1
Excerpt: as §1

[3] = biological target: T3, amino terminus of the GIRK1 subunit cloned into the vector pDBLeu (rat, UniProt P04386 1-147; P63251 1-80, limits assumed)
T3 construct: Yeast two-hybrid bait with the GIRK1 N terminus alone; also called N terminus of GIRK1
Excerpt: as §1

B1: nucleotide region 1011-1193 of SEQ ID NO: 1 (overlap of GIRK1NCprey2 and GIRK1NCprey3) cloned into the plasmid pPC86 (other, not shown: small tags and cut ends)
chain: ESERRLHERESEIMELKSQLARMREDWIEEECHRVEAQLALKEARKEIKQLKQVIETMRS
modifications: also: fused to GAL4 activation domain with pPC86 linker and tail residues
notes: Residue range converted from the printed nucleotide range; also called 1NCprey23o construct
binding result [1]: no binding

B2: GIRK1NCprey2 (nucleotides 1011-1349 of SEQ ID NO: 1, fragment of rat Mogli, in pPC86) (other)
chain: ESERRLHERESEIMELKSQLARMREDWIEEECHRVEAQLALKEARKEIKQLKQVIETMRSSLADKDKGIQKYFVDINIQNKKLESLLQSMEMAHNSSLRDELCLDFSFDSPE
notes: Residue range converted from the printed nucleotide range; also called prey plasmid; Mogli fragment
binding result [2]: no binding
binding result [3]: no binding

B3: GIRK1NCprey3 (nucleotides 500-1193 of SEQ ID NO: 1, fragment of rat Mogli, in pPC86) (other)
chain: RIGMVGEGNIQSARYKKESKGGIIKPGSEADFSSSSSTGSISAPEVHMSTTGNKRASFSRNRGPHGRSNGAPSHKSGSSPPSPREKDLVSMLCRNPLSPSNIHPSYAPSSPSSSNSGSYKGSDCSPVMRRSGRYMSCGENHGVKPPNPEQYLTPLQQKEVTVRHLRTKLKESERRLHERESEIMELKSQLARMREDWIEEECHRVEAQLALKEARKEIKQLKQVIETMRS
notes: as for B2
binding result [2]: no binding
binding result [3]: no binding
